From the nanobody polyreactivity screen of Harvey et al. (2022) come the findings set out here.

The data set can be described thus: yeast display, Sf9 membrane polyspecificity reagent, FACS + sequencing; frameworks hold sequencing errors. An outline of the steps:
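A nanobody's polyreactivity label depends on the gate it was sorted from. Yeast display cells were stained with 10% biotinylated, detergent-solubilized Sf9 membrane reagent for 1 hour at 4 °C, enriched on streptavidin microbeads and sorted by FACS. The low and high (top ~1%) gates were set on anti-HA fluorescence for expression and streptavidin fluorescence for reagent binding.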
Regarding “QVQLQESGGGLVQAGGSLRLSCAASGTISYAPHMGWYRQAPGKERELVAGITIGGTTYYADSVKGRFTISRDNANNTVYLQMNSLSPGDTAVYYCAAHSEQYTPFYYWGQGTQVTVSS”, the “polyreactivity (PSR sort gate)” value is on record as “low polyreactivity”. The entry for “QVQLVESGGGLVQAGGSLRLSCAASGFTFSGNAMGWYRQAPGKEREIVAAITARGGNTFYADSVKGRFTISRDNAKNTVYLQMNSLQPEETAVSYCKRGPYYSSSKYRFSAYHRAYWGQGNQVTVSS” is “high polyreactivity”. Consider “QVQLVESGGGLVQAGGSLRLSCAASGSTFSVYAMGWYRQAPGKERELVAAISTSGGSTYYADSVKGRFTISRDNAKNTVYLQMNSLKTEDTAVYYCNAEYSGYIYPYSYPIYYWYDYWGQGTQVTVSS”, for which the “polyreactivity (PSR sort gate)” value is on record as “high polyreactivity”. For “QVQLVESGGGLVQAGGSLRLSCAASGITFRAYALGWYRQAPGKEREFVAAISWRGGSTYYADSVKGRFTISRDNAKNTVYLQMNSLKPEDTAVYYCAVGSYDHDYWYEYWGQGTQVTVSS”, the “polyreactivity (PSR sort gate)” value was “high polyreactivity”.

With “QVQLVESGGGLVQAGGSLRLSCAASGFIFRWYAMGWYRQAPGKERELVAAITSGGSTYYADSVKGRFTISRDNAKNTVYLQMNSLKPEDTAVYYCNTYPGSRHWWYDYWGQGTQVTVSS”, the “polyreactivity (PSR sort gate)” value was “high polyreactivity”. In the case of “QVHLVESAAGLVQEGGSLRVSCAASGRIFDIYAMGGYRQSTGKERELVAAITLRGGTTYADSVKGRFTISRDNAKNSVYLQMNSLKPEDTAVYYCARYHWYYRVSKSESWGQGTQVTVSS”, the “polyreactivity (PSR sort gate)” value was “high polyreactivity”. With “QVQLVESGGGLVQAGGSLRLSCAASGFTFNRYAMAWDRQAPGKERELVATITSGGNTYYADSVKGRFTIARDNAKNTVYLQMNSLKPEDTAVYYCNQLGWYSVYRRDYWGQGTQVTVSS”, the “polyreactivity (PSR sort gate)” value is “high polyreactivity”. Under “QVQLVESGGGLVQAGGSLRLICAASGSIFSKYVMGWYREAPGKERDLVAAISWSGTRTYYADSVKGRFTISRDNAKNTVILQMNSMKAEDTAVYYCAARRLYAGHQYDYWGQGTIVTVSS” stands “high polyreactivity”. The entry for “QVQLVESGAGLVQAGGSLRLSCAASGSIFGFYAMGWYRQAPGKERELVASISSSGDSTYYADSVKGRFTISRDNAKYTVYLPMNSLKPEDTAVYYCAAVVYDIYGYEFDYWGLGTQVTVSS” is “low polyreactivity”; for “QVQLVESGGGLVQAGGSLRLSCAASGRIFYINAMGWYRQAPGKERELVAAITGGDGSTTYADSVKGRFTISRDNAKNTVYLQMNSLKPEDTAVYYCNADTARKYAESQFDHWGQGTQVTVSS” it is “low polyreactivity”; for “QVQLVESGGGLVQAGGSLRLSSAASGITFRNYAMGWSRQAPGKERELVAAITRGGRTNYADSVKGRFTISRDNAKNTVYLQMNSLKPEDTAVYYCATGRDSNFGNSYYYWGQGTQVTVSS” it is “high polyreactivity”. For the sequence “QVQLVESGGGLVQAGGSLRLSCADSGSIFLIYAMGWYRQAPGKERELVATINRGDNTYYADSVKGRFTISRDNAKITVYLQMYSLKPEDTADGYWGQGTQVTGSS”, the “polyreactivity (PSR sort gate)” value is “low polyreactivity”. Under “QVQLVESGGGLFQAGGSLRLSCAATGSTFSGYAMGWYRQATGKDRELVAAIASTGRTYYADSVKGRFTISRDNAKKTVYLQMNSLKPEDTAVYYCAAKRYTVYVHKYEYWGQGTKVTVSS” stands “high polyreactivity”; under “QVQLVESGGGLLQAGGSLRLSCAASGITFTSYVMGWYRQAPGKERELVAAIRWSGGRTYYADSVKGRFTISRDNAKYTVYLQMNSLKPEDTAVYYCNRVTRSHVDYWGQGTQVTVSS”, “high polyreactivity”. In the case of “QDQLVESGGGLVQAGGSLRLSCAASGRIFTGNAMGWYRQAPGKERELVAAITKSGGSTYYADSVKGRFTISRDNAKNTVYLQMNSLKPEDTAVYYCAATRYLHYVYKYGYWGQGTQVTVSS”, the “polyreactivity (PSR sort gate)” value is given as “high polyreactivity”.

In the case of “QVQHVESGGCLVQARGSLRLSCASSGRTFDIYARGWYRHPPGKESELVAVISASGGSTYYADSVKGRFTISRDNAKNTVYLQMNSLKPEDTAVYYCAARYWFRFQYDYWGQGTQVTVSS”, the “polyreactivity (PSR sort gate)” value was “high polyreactivity”. The entry for “QVQLVESGGGLVQAGGSLRLSCAASGSIFTYYAMGWYRQAPGKERELVAAITSTGGSTYYADSVKGRFTISRDNAKNTVYLQMNSQKPEDTAVYYCATDYGYYDYWGQGTQVTVSS” is “low polyreactivity”. For “QVQLVESGGGLVQAGGSLRLSCAASGRTFYSNTIGWYRQAPGNESELVAAINRGGSTYYADSVKGRFTISRDNAKNTVYFQMNSLKPEDTAVYYCAVGYAHSSNRRYYYKKTHGYWGQGTQVTVSS”, the “polyreactivity (PSR sort gate)” value is listed as “low polyreactivity”. In the case of “QVQLVESGGGLVQAGGSLRLSCAASGSTFIDYAMGWYRQAPGKERELVAAITWSGSSTYYADSVKGRFTISRDNAKNTVYLQMNSLKPEDTAVYYCAARYWYQSYHTYGYYSWGQGTQVTVSS”, the “polyreactivity (PSR sort gate)” value is “low polyreactivity”.

Take “QVQLVESGGGLVQAGGSLRLSCAASGSIFSYYAMGWSRQAPGKERELVAAISWGDDSTYYADSVKGRFTISRDNAKNTVYLQMNSLKPEDTAVYYCAADRVGWYRTFDYWGQGTQVTVSS”: the “polyreactivity (PSR sort gate)” value is “low polyreactivity”.

In the case of “QVQLVESGGGLVQAGGSLRLSSAASGSILPLYAMGWYRQAPGKERELVADISWSGGDTYYADSVKGRFTISRDKAKNTVYLQMNSLKPEDTAVYYCNSRLDYSTYESSPVTRKRVYWGQGTQVTVSS”, the “polyreactivity (PSR sort gate)” value is “low polyreactivity”. Regarding “QVQLVESGGGLVQAGGSLRLSCAASGSIFGGNAMGWYRQAPGKERELVATITDRGSSTYYADSVKGRFTISRDNAKNTVYLQMNSLKPEDTAVYYCATAFPDVPEPDYWGQGAQVTVSS”, the “polyreactivity (PSR sort gate)” value is “low polyreactivity”. As for “QVQLVESGGGLVQAGGSLRLICAASGFTFAGYAMGWYRQARGKDRELVAGIRSSGARTYYADSVKGRFTISRDNAKNTVYIQMNSLKPEDTAVYYCAKTDGFYRGYGYWGQGTQVTVSS”, the “polyreactivity (PSR sort gate)” value was “low polyreactivity”. As to “QVQLVESGGGLVQAGGSLRLSCAASGSTFSGYAMGWYRQAPGKERELVAAITSGGSTNYADSVKGRFTISRDNAKNTVYLQMNSLKPEDTAVYYCAADSREVSTTAYYYWGQGTQVTVSS”, the “polyreactivity (PSR sort gate)” value is given as “low polyreactivity”.

Regarding “QVQLVESGGGLVQAGGSLRLSCAASGSIFPVYTMGWYRQAPGKEREFVATITISGAITYYADSVKGRFTISRDNAKNTVYLQMTSLKPEDTAVYYCNTGPMYFPANDYWGQGTQVTVSS”, the “polyreactivity (PSR sort gate)” value is on record as “low polyreactivity”.

Consider “QVQLVESGGGLVQAGGSLRLSCAAPGSTLSYYAMGWYRQATGKERELVAAISLSVGSTYYADSVKGRFTISRDNAKNTVYLQMNSLKPEDTAVYYCAADDFYSGPFRGDYWGQGTQVTVSS”, for which the “polyreactivity (PSR sort gate)” value is given as “low polyreactivity”.

Turning to “QVQLVESGGGLVQAGGSLRLSCVASGSIFGSYAMGWYRQAPGKERELVASISDSGGSTDYADSVKGRFTISRDNAKNTVYLQMHSLKPEDTAVYYCAADDFSGYVTEYDYWGQGTQVTVSS”, the “polyreactivity (PSR sort gate)” value is reported as “low polyreactivity”. The entry for “QVQLVESGGGLVQAGGSLRLSCAASGSTFYSNAMGWYRQAPGKERELVATISFRGGRTYYADSVKGRFTISRDNAMNTVYLQMNSLKPEDTAVYYCNAEVSGYPYTYGYRGQGTQVTVSS” is “low polyreactivity”; for “QVQLVESGGGLVQAGGSLRLTCAASGIIFQRNTMGWYRQAPGKERELVAAITSRGGRTYYADSVKGRFTISRDNAKNTVYLQMNSLKPEDTAVYYCAALLYFYSRPYGYWGQGTQVTVSS” it is “high polyreactivity”. For “QVQLVESGGGLVQAGGSLRLSCAASGRTLYGNAMGWYRQAPGKEREFVAAITRSGGTTYYADSVKGRFTISRDNAKNTVYLQMNSLKPEDTAVYYCATAFRGYTGLFYWGQGTQVTVSS”, the “polyreactivity (PSR sort gate)” value is recorded as “high polyreactivity”. The entry for “QVQLVESGGGLVQAGGSLRLSCAASGFTFAVYAMGWYRQAPGKERELVAAISRSGTRTYYADSVKGRFTISRDNAKNTVFLQMNSLKPEDTAVYYCAADKYRHGYDYWGQGTQVTVSS” is “low polyreactivity”. Turning to “PVQLVESGGGLVQAGGSLRLSCAASGSTFKRYAMGWYRQAPGKERELVAAISSGGTTYYADSVTGRFTISRDNAKNTVYLQMISLKPEDSAVYDCIARKYGWDQRILIYDYWGQGTQVTVSS”, the “polyreactivity (PSR sort gate)” value was “high polyreactivity”. For “QVQLVESGGGLVQAGGSLRLSCAASGRIFRPNTMGWYRQAPGKERELVASISLSAGSTYYADSVKGRFTISRDNAKNTVFLQMNSLKPEDTAVYYCNATYLSWYRYKYNYWGQGTQVTVSS”, the “polyreactivity (PSR sort gate)” value is “low polyreactivity”. In the case of “QVQLVESGGGLDQAGGSLRLSCDASGGTFLSYAMGWYRQAHGKERELVARINSGSSTYYADSVKGRFTISRDNAKNTVYLQMNSLKPEDTAVYYCATRWVSRTHGYWGQGTQVTVSS”, the “polyreactivity (PSR sort gate)” value was “low polyreactivity”. On to “HFQLVESGGGIVQAGGSLRLSCAASGRTCFYNAMGWYRQAPGKERELVAAISWSGGSTYYADSVKGRFTISRDNAKNPVSLQMNSLNREDTAVYYCNAAYGRRYDYWGQGTQVTVSS”, for which the “polyreactivity (PSR sort gate)” value was “high polyreactivity”. Regarding “QVQLVESGGGLVQAGGSLRLSCAASGFILLDNAMGWYRQAPGKEREFVASINISGDRTFYADSVKGRFTISRDNAKNTDYLQMNSLKPEDTAVYYCNALPSEPMVYWGQGTQVTVSS”, the “polyreactivity (PSR sort gate)” value is “low polyreactivity”.

For “QVQLVESGGGLVQAGGSLRLSCAASGSIFVRNGMGWYRQAPGKDRELVASITSGTITYYADSVKGRFTISRDNAKNTVYLQMNSLKPEDTAVYDCNAGWRSSRFKRPYFRERNYWGQGTQLTVSS”, the “polyreactivity (PSR sort gate)” value is listed as “high polyreactivity”.

With “QVQLVESVGGLVQAGGSLRLSCAASGSIYRSYTMGWYRQAPRKEREFVAAITKRGGSTYYADSVKGRFTISRDNAKNTVYLQMISLKPEDTAVYYCAAVAGHYYYFRELGYWGQGTQVTVSS”, the “polyreactivity (PSR sort gate)” value is given as “high polyreactivity”.

On to “QVQLVESGGGLVQAGGSLRLSCAASGFIFRYYTMGWYRQAPGKERELVAVITSGGTTYYADSVKGRFTISRDNAKNTVYLQMNSLKPEDTAGAADQWTIHRWATYGYWGQGTQVTVSS”, for which the “polyreactivity (PSR sort gate)” value is recorded as “low polyreactivity”.

Take “QVQLVESGGGLVQAGGSLRLSCAASGFIFPDDAMGWYSQAPGKERELVASINRSGGSTNYADSVKGRFTISRDHAKNTDYLQMNSLKPEDTAVYYCAPDFSFLGNASARLDYDYWGQGTQVTGSS”: the “polyreactivity (PSR sort gate)” value is “low polyreactivity”. For “QVQLVESGGGLVQAGGSLRLSCAASGNIFAWYAMGGYRQAPGKERELVADISSRGGSTYYADSVKGRFTISRDNAKNTVYLQMNSLKPEDTAVYYCAAVWYWTQDYDYWGQGTQVTVSS”, the “polyreactivity (PSR sort gate)” value is “low polyreactivity”.
